{"source": "patent US11266715B2", "about": "“C3A receptor agonists for use against ischemic brain injury, stroke, traumatic brain injury, spinal cord injury and neurodegenerative disorders” (priority 2016, dated 2022)", "experiment": "In vivo epifluorescent imaging of labelled C3a after intranasal administration", "design": "species or system mouse", "procedure": "C3a (Complement Technologies) was labelled with VivoTag XL 680 fluorescent tag (Perkin Elmer) and purified according to manufacturer's instructions. A minimum of 10 μg of labelled C3a (0.4 mg/kg of body weight) was determined in a pilot experiment to be necessary for reliable detection of the fluorescent signal in live animals due to its significant attenuation by skull bones. Mice received 20 μl of PBS or 65 μM C3a-VivoTag (0.48 mg/kg of body weight) intranasally as described above. One and three hours later, mice were anesthetized with 2% isoflurane and imaged in the IVIS Lumina III Bio-imaging platform (Caliper Technologies). After imaging, mice were deeply anesthetized with isoflurane and killed by cervical dislocation for ex vivo imaging. Brains were quickly dissected from the skull and imaged using the same fluorescent filter sets. All mice and brains were imaged simultaneously with the PBS-treated control (acting as the tissue autofluorescence reference) placed in the middle, to minimize the potential confound of weaker illumination toward the sides of the observation field. Acquired images were processed and analysed using Living Image software (Caliper Technologies). Epifluorescent signal intensities are presented as radiant efficiency [(photons/sec/cm^2/sr)/(μW/cm^2)] after subtraction of the residual tissue autofluorescence signal defined by the PBS control."}
{"substance": "fluorescently labelled C3a: C3a (Complement Technologies) labelled with VivoTag XL 680 fluorescent tag", "values": [{"measurement": "time C3a is detectable in brain tissue after intranasal administration", "setting": "20 μl of 65 μM C3a-VivoTag (0.48 mg/kg) intranasal, imaged at 1 and 3 h, live and ex vivo", "value": "at least 3 hours"}, {"measurement": "delivery to the brain by intranasal administration", "setting": "epifluorescent imaging in live animals", "value": "can be delivered to the mouse brain through intranasal administration"}]}
